Laboratory results taken from paper PMC8020832.
Where a chain is given by its changes, count along the chain named. Numbers in names are those of the source.

B1: 2411a revertant of heavy chain Y33V/M34L (CDR H1) (antibody, V domains shown)
VH: QVQLVQSGAEMKKPGASVRVSCEASGYTFTDYYMHWMRQAPGQGIEWLGWIKPRYGAVNYAHKFQGRVSMTRDTSIDTAYLELINLRSDDTAIYYCARSFDSDYEWWFTYWGQGTLVSVSA
VL: EIVLTQSPGTLSLSPGERATLSCRASYFISRDYLAWYQQRPGQAPKLLIYGTTTRASGIPDRFSGSGSGTDFTLTISRLEPEDFAVYYCQQYEFFGLGTKVEIK
B2: 2411a revertant of light chain S27aF (CDR L1) (antibody, V domains shown)
VH: B1 VH with Y33V, M34L
VL: B1 VL with F28S
B3: 2411a revertant of heavy chain G56A/T57V (CDR H2) (antibody, V domains shown)
VH: B1 VH with Y33V, M34L, A57G, V58T
VL: B1 VL
B4: 2411a revertant of heavy chain N52K (CDR H2) (antibody, V domains shown)
VH: B1 VH with Y33V, M34L, K52N
VL: B1 VL
B5: 2411a revertant of heavy chain Q61H (CDR H2) (antibody, V domains shown)
VH: B1 VH with Y33V, M34L, H62Q
VL: B1 VL
B6: 2411a revertant of light chain Q27Y (CDR L1) (antibody, V domains shown)
VH: B1 VH with Y33V, M34L
VL: B1 VL with Y27Q
B7: 2411a revertant of heavy chain N53R/S54Y (CDR H2) (antibody, V domains shown)
VH: B1 VH with Y33V, M34L, R54N, Y55S
VL: B1 VL

The binders below were run against 18 Env antigens (assay: ELISA).

Question: How did the mean fold change in ELISA binding titer (OD450) versus parental 2411a turn out when B1 was run?
Answer: Its mean fold change in ELISA binding titer (OD450) versus parental 2411a is 3.9 fold.

Question: B2 was tested. Which mean fold change in ELISA binding titer (OD450) versus parental 2411a did it give?
Answer: The mean fold change in ELISA binding titer (OD450) versus parental 2411a was 1.6 fold.

Question: For B3, which mean fold change in ELISA binding titer (OD450) versus parental 2411a is on record?
Answer: The mean fold change in ELISA binding titer (OD450) versus parental 2411a was 5.5 fold.

Question: Which mean fold change in ELISA binding titer (OD450) versus parental 2411a does the source give for B4 here?
Answer: Its mean fold change in ELISA binding titer (OD450) versus parental 2411a is 5.4 fold.

Question: For B5, which mean fold change in ELISA binding titer (OD450) versus parental 2411a is on record?
Answer: Its mean fold change in ELISA binding titer (OD450) versus parental 2411a is 1.4 fold.

Question: For B6, which mean fold change in ELISA binding titer (OD450) versus parental 2411a is on record?
Answer: The mean fold change in ELISA binding titer (OD450) versus parental 2411a was 1.8 fold.

Question: For B7, which mean fold change in ELISA binding titer (OD450) versus parental 2411a is on record?
Answer: The mean fold change in ELISA binding titer (OD450) versus parental 2411a was 6.5 fold.
